72 substances from patent US12195506B2, “Immunotherapy with A*01 restricted peptides and combination of peptides against cancers and related methods” (Immatics Biotechnologies GmbH, priority 2018, dated 2025) can be followed below.

This assay addresses HLA-A*01:01 (Homo sapiens, UniProt P04439, A114D/A174V/A182V/D101N/D185E/E176A/E190D/L180R/Q94H/R68K/S129P/T187R/V100A/V91M/W191G). The assay is described as follows: MHC binding assay: UV-ligand exchange, ELISA of stabilized MHC complexes (peptide exchange yield). As to conditions: binding to HLA-A*01:01, UV-ligand exchange. The essentials: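 Peptide–MHC complexes were formed by UV-induced exchange of a photocleavable ligand for the test peptide. Exchange yield was measured by streptavidin-capture ELISA of 100-fold diluted complexes, detected with HRP anti-β2m at A450. Refolded HLA-A*02:01/MLA-001 monomers at 15-500 ng/ml served as standards.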
A general note: ELISA stands for enzyme-linked immunosorbent assay.
In the case of “235 (SIEIDHTQY; listed as Homo sapiens) [compound 235]”, the Peptide exchange result is on record as “++ (>20% = ++)”.
To “236 (VLDSLLAQY; listed as Homo sapiens) [compound 236]” belongs “++++ (>75% = ++++)”; to “237 (AQEAAVFLTLY; listed as Homo sapiens) [compound 237]”, “+++ (>50 = +++)”; to “238 (ETDWGLLKGHTY; listed as Homo sapiens) [compound 238]”, “++++ (>75% = ++++)”.
On to “239 (SSERGSPIEKY; listed as Homo sapiens) [compound 239]”, for which the Peptide exchange result was “+++ (>50 = +++)”.
To “240 (EVLDSLLAQY; listed as Homo sapiens) [compound 240]” belongs “++ (>20% = ++)”; to “241 (SLMVASLTY; listed as Homo sapiens) [compound 241]”, “++ (>20% = ++)”; to “242 (GTNLPTLLW; listed as Homo sapiens) [compound 242]”, “+ (>10% =+)”.
To “243 (LTSEDTGAY; listed as Homo sapiens) [compound 243]” belongs “+++ (>50 = +++)”; to “244 (VTKYIAGPY; listed as Homo sapiens) [compound 244]”, “++ (>20% = ++)”; to “245 (LSDNAANRY; listed as Homo sapiens) [compound 245]”, “+++ (>50 = +++)”.
Take “246 (ARLEGEIATY; listed as Homo sapiens) [compound 246]”: the Peptide exchange entry is recorded as “++ (>20% = ++)”.
To “247 (SMIRVGTNY; listed as Homo sapiens) [compound 247]” belongs “++ (>20% = ++)”; to “248 (VTDIDELGK; listed as Homo sapiens) [compound 248]”, “+++ (>50 = +++)”.
To “249 (GVGFTELEY; listed as Homo sapiens) [compound 249]” belongs “+++ (>50 = +++)”; to “250 (GYVCNACGLY; listed as Homo sapiens) [compound 250]”, “++ (>20% = ++)”.
To “251 (GIEMTYETY; listed as Homo sapiens) [compound 251]” belongs “++ (>20% = ++)”.
On to “252 (DTTSHTYLQY; listed as Homo sapiens) [compound 252]”, for which the Peptide exchange result was “++ (>20% = ++)”.
On to “253 (YLESHGLAY; listed as Homo sapiens) [compound 253]”, for which the Peptide exchange entry is reported as “++++ (>75% = ++++)”.
To “254 (FLFNDALLY; listed as Homo sapiens) [compound 254]” belongs “++++ (>75% = ++++)”; to “255 (WELDSLEY; listed as Homo sapiens) [compound 255]”, “++ (>20% = ++)”; to “256 (HAFESNNFIY; listed as Homo sapiens) [compound 256]”, “++ (>20% = ++)”.
To “257 (KSEMNVNMKY; listed as Homo sapiens) [compound 257]” belongs “++++ (>75% = ++++)”; to “258 (RPSSVLTIY; listed as Homo sapiens) [compound 258]”, “+++ (>50 = +++)”; to “259 (APDEVVALL; listed as Homo sapiens) [compound 259]”, “++ (>20% = ++)”.
To “260 (KPTEDSANVY; listed as Homo sapiens) [compound 260]” belongs “+++ (>50 = +++)”.
For “261 (MTEGSTVNTEY; listed as Homo sapiens) [compound 261]”, the Peptide exchange entry is listed as “++++ (>75% = ++++)”.
To “262 (NVKHFLNDLY; listed as Homo sapiens) [compound 262]” belongs “+++ (>50 = +++)”.
With “263 (DCMDTEGSYM; listed as Homo sapiens) [compound 263]”, the Peptide exchange entry is “++ (>20% = ++)”.
To “264 (YRDPVFVSL; listed as Homo sapiens) [compound 264]” belongs “++ (>20% = ++)”; to “265 (LSDIDSRYI; listed as Homo sapiens) [compound 265]”, “++ (>20% = ++)”.
To “266 (LTDSFLLRF; listed as Homo sapiens) [compound 266]” belongs “++++ (>75% = ++++)”; to “267 (IVADDTVY; listed as Homo sapiens) [compound 267]”, “+++ (>50 = +++)”.
To “268 (AILHHLYFY; listed as Homo sapiens) [compound 268]” belongs “+ (>10% =+)”; to “269 (LPSPAATIWDY; listed as Homo sapiens) [compound 269]”, “+++ (>50 = +++)”; to “270 (DLKIDLAAQY; listed as Homo sapiens) [compound 270]”, “++ (>20% = ++)”.
On to “271 (VAEPPVVCSY; listed as Homo sapiens) [compound 271]”, for which the Peptide exchange entry is listed as “++ (>20% = ++)”.
To “272 (IPQDECLRY; listed as Homo sapiens) [compound 272]” belongs “+++ (>50 = +++)”.
To “273 (CGPNEINHFY; listed as Homo sapiens) [compound 273]” belongs “++ (>20% = ++)”; to “274 (YADIHGDLL; listed as Homo sapiens) [compound 274]”, “+++ (>50 = +++)”.
To “275 (ESDEMENLLTY; listed as Homo sapiens) [compound 275]” belongs “+++ (>50 = +++)”; to “276 (QITSFASGTSY; listed as Homo sapiens) [compound 276]”, “+++ (>50 = +++)”; to “277 (LPAPGFLFY; listed as Homo sapiens) [compound 277]”, “++ (>20% = ++)”.
With “278 (AATVKSDIY; listed as Homo sapiens) [compound 278]”, the Peptide exchange entry is given as “++ (>20% = ++)”.
To “279 (LMTVLLKY; listed as Homo sapiens) [compound 279]” belongs “+++ (>50 = +++)”.
To “280 (TTEMVSNESVDY; listed as Homo sapiens) [compound 280]” belongs “++++ (>75% = ++++)”; to “281 (YPDLSELLM; listed as Homo sapiens) [compound 281]”, “++ (>20% = ++)”.
To “282 (QAMPSWPTAAY; listed as Homo sapiens) [compound 282]” belongs “++ (>20% = ++)”; to “283 (ETILVSSSY; listed as Homo sapiens) [compound 283]”, “++ (>20% = ++)”; to “284 (TCSHTFVYY; listed as Homo sapiens) [compound 284]”, “++ (>20% = ++)”.
As for “285 (VLPHHSEGACVY; listed as Homo sapiens) [compound 285]”, the Peptide exchange entry is “+++ (>50 = +++)”.
To “286 (ATDMEGNLNY; listed as Homo sapiens) [compound 286]” belongs “+++ (>50 = +++)”; to “287 (ENSIEDLQY; listed as Homo sapiens) [compound 287]”, “+++ (>50 = +++)”; to “288 (TEEKFVSY; listed as Homo sapiens) [compound 288]”, “+ (>10% =+)”.
To “289 (YTSHEDIGY; listed as Homo sapiens) [compound 289]” belongs “++++ (>75% = ++++)”; to “290 (GQFTGTAGACRY; listed as Homo sapiens) [compound 290]”, “++ (>20% = ++)”.
To “291 (TSDVTGSLTY; listed as Homo sapiens) [compound 291]” belongs “++++ (>75% = ++++)”.
Take “292 (VLDFAPPGASAY; listed as Homo sapiens) [compound 292]”: the Peptide exchange result was “++++ (>75% = ++++)”.
To “294 (MMEMEGMY; listed as Homo sapiens) [compound 294]” belongs “+++ (>50 = +++)”; to “295 (GQRLDEAMISY; listed as Homo sapiens) [compound 295]”, “+++ (>50 = +++)”; to “296 (HMLAAMAY; listed as Homo sapiens) [compound 296]”, “++ (>20% = ++)”.
To “297 (RLDEAMISY; listed as Homo sapiens) [compound 297]” belongs “+++ (>50 = +++)”; to “298 (KFDVINHYF; listed as Homo sapiens) [compound 298]”, “++ (>20% = ++)”.
“299 (EVDSVALSL; listed as Homo sapiens) [compound 299]”: the Peptide exchange result is reported as “++ (>20% = ++)”.
To “300 (VSINPNSGDIY; listed as Homo sapiens) [compound 300]” belongs “+++ (>50 = +++)”; to “301 (ESQTCASDY; listed as Homo sapiens) [compound 301]”, “+++ (>50 = +++)”.
To “302 (FYLSTPENYHY; listed as Homo sapiens) [compound 302]” belongs “+++ (>50 = +++)”; to “303 (GFGGLSSQGVYY; listed as Homo sapiens) [compound 303]”, “+++ (>50 = +++)”.
Consider “304 (FSENLIYTYI; listed as Homo sapiens) [compound 304]”, for which the Peptide exchange result is reported as “++ (>20% = ++)”.
Consider “305 (YADLLIYTY; listed as Homo sapiens) [compound 305]”, for which the Peptide exchange result was “++++ (>75% = ++++)”.
To “306 (KSFETTVRY; listed as Homo sapiens) [compound 306]” belongs “++ (>20% = ++)”; to “307 (DTDDRELRY; listed as Homo sapiens) [compound 307]”, “+++ (>50 = +++)”.
